From IntAct's records for PubMed 25910212

B1: Progranulin (Homo sapiens), P28799 (parent)
chain: MWTLVSWVALTAGLVAGTRCPDGQFCPVACCLDPGGASYSCCRPLLDKWPTTLSRHLGGPCQVDAHCSAGHSCIFTVSGTSSCCPFPEAVACGDGHHCCPRGFHCSADGRSCFQRSGNNSVGAIQCPDSQFECPDFSTCCVMVDGSWGCCPMPQASCCEDRVHCCPHGAFCDLVHTRCITPTGTHPLAKKLPAQRTNRAVALSSSVMCPDARSRCPDGSTCCELPSGKYGCCPMPNATCCSDHLHCCPQDTVCDLIQSKCLSKENATTDLLTKLPAHTVGDVKCDMEVSCPDGYTCCRLQSGAWGCCPFTQAVCCEDHIHCCPAGFTCDTQKGTCEQGPHQVPWMEKAPAHLSLPDPQALKRDVPCDNVSSCPSSDTCCQLTSGEWGCCPIPEAVCCSDHQHCCPQGYTCVAEGQCQRGSEIVAGLEKMPARRASLSHPRDIGCDQHTSCPVGQTCCPSLGGSWACCQLPHAVCCEDRQHCCPAGYTCNVKARSCEKEVVSAQPATFLARSPHVGVKDVECGEGHFCHDNQTCCRDNRQGWACCPYRQGVCCADRRHCCPAGFRCAARGTKCLRREAPRWDAPLRDPALRQLL
partner: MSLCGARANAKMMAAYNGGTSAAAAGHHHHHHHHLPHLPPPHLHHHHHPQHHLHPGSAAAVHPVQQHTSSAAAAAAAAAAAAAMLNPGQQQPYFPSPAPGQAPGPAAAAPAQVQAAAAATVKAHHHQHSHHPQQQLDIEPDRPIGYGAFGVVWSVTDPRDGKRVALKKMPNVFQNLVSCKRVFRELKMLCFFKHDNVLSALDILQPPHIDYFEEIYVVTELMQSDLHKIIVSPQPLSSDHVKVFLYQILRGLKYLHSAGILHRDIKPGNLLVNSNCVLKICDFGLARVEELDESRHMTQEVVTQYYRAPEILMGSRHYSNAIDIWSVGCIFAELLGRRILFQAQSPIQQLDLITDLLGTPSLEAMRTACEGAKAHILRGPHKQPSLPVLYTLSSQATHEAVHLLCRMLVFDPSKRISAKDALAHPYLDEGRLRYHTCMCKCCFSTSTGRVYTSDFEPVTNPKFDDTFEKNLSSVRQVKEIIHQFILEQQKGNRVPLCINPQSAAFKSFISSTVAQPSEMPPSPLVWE
B2: Beta-crystallin A4 (Homo sapiens), P53673 (parent)
chain: MTLQCTKSAGPWKMVVWDEDGFQGRRHEFTAECPSVLELGFETVRSLKVLSGAWVGFEHAGFQGQQYILERGEYPSWDAWGGNTAYPAERLTSFRPAACANHRDSRLTIFEQENFLGKKGELSDDYPSLQAMGWEGNEVGSFHVHSGAWVCSQFPGYRGFQYVLECDHHSGDYKHFREWGSHAPTFQVQSIRRIQQ
partner: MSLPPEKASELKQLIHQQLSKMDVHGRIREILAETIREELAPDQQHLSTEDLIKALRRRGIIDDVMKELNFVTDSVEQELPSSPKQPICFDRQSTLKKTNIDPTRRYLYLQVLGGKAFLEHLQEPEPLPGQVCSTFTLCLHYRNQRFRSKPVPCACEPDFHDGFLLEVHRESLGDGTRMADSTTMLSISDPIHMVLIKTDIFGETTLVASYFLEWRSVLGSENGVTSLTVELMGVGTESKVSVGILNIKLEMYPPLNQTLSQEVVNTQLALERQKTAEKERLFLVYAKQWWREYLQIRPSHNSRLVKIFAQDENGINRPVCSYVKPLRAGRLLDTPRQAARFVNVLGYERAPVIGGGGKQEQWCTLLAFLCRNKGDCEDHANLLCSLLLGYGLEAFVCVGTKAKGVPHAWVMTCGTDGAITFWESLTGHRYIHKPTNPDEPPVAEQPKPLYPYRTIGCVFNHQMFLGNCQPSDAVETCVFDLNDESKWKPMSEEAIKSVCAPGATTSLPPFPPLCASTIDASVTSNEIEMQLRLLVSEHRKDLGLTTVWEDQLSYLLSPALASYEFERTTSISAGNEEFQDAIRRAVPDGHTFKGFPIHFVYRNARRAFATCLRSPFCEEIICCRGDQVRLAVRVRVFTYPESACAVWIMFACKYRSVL
B3: ATP synthase mitochondrial F1 complex assembly factor 2 (Homo sapiens), Q8N5M1 (parent)
chain: MWRSCLRLRDGGRRLLNRPAGGPSASMSPGPTIPSPARAYAPPTERKRFYQNVSITQGEGGFEINLDHRKLKTPQAKLFTVPSEALAIAVATEWDSQQDTIKYYTMHLTTLCNTSLDNPTQRNKDQLIRAAVKFLDTDTICYRVEEPETLVELQRNEWDPIIEWAEKRYGVEISSSTSIMGPSIPAKTREVLVSHLASYNTWALQGIEFVAAQLKSMVLTLGLIDLRLTVEQAVLLSRLEEEYQIQKWGNIEWAHDYELQELRARTAAGTLFIHLCSESTTVKHKLLKE
partner: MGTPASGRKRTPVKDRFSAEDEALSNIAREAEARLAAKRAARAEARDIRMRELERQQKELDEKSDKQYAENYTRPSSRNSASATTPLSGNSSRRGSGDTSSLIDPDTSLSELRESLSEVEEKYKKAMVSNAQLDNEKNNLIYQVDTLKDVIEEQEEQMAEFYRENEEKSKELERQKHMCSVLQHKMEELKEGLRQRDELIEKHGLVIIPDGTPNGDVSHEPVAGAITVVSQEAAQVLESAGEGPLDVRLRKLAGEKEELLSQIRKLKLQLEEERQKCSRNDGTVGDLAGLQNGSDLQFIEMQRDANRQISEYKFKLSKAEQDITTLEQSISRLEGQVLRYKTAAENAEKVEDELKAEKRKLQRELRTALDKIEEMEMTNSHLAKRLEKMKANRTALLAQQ
B4: DNA mismatch repair protein Mlh1 (Homo sapiens), P40692 (parent)
chain: MSFVAGVIRRLDETVVNRIAAGEVIQRPANAIKEMIENCLDAKSTSIQVIVKEGGLKLIQIQDNGTGIRKEDLDIVCERFTTSKLQSFEDLASISTYGFRGEALASISHVAHVTITTKTADGKCAYRASYSDGKLKAPPKPCAGNQGTQITVEDLFYNIATRRKALKNPSEEYGKILEVVGRYSVHNAGISFSVKKQGETVADVRTLPNASTVDNIRSIFGNAVSRELIEIGCEDKTLAFKMNGYISNANYSVKKCIFLLFINHRLVESTSLRKAIETVYAAYLPKNTHPFLYLSLEISPQNVDVNVHPTKHEVHFLHEESILERVQQHIESKLLGSNSSRMYFTQTLLPGLAGPSGEMVKSTTSLTSSSTSGSSDKVYAHQMVRTDSREQKLDAFLQPLSKPLSSQPQAIVTEDKTDISSGRARQQDEEMLELPAPAEVAAKNQSLEGDTTKGTSEMSEKRGPTSSNPRKRHREDSDVEMVEDDSRKEMTAACTPRRRIINLTSVLSLQEEINEQGHEVLREMLHNHSFVGCVNPQWALAQHQTKLYLLNTTKLSEELFYQILIYDFANFGVLRLSEPAPLFDLAMLALDSPESGWTEEDGPKEGLAEYIVEFLKKKAEMLADYFSLEIDEEGNLIGLPLLIDNYVPPLEGLPIFILRLATEVNWDEEKECFESLSKECAMFYSIRKQYISEESTLSGQQSEVPGSIPNSWKWTVEHIVYKALRSHILPPKHFTEDGNILQLANLPDLYKVFERC
partner: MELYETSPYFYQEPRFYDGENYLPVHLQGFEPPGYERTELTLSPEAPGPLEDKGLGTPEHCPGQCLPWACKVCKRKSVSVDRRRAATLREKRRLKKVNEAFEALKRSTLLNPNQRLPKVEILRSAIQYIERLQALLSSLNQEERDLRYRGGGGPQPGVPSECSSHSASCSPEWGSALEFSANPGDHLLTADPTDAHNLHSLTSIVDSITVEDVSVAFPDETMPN
B5: ATP synthase mitochondrial F1 complex assembly factor 2 (Homo sapiens), Q8N5M1 (parent)
chain: B3 chain
partner: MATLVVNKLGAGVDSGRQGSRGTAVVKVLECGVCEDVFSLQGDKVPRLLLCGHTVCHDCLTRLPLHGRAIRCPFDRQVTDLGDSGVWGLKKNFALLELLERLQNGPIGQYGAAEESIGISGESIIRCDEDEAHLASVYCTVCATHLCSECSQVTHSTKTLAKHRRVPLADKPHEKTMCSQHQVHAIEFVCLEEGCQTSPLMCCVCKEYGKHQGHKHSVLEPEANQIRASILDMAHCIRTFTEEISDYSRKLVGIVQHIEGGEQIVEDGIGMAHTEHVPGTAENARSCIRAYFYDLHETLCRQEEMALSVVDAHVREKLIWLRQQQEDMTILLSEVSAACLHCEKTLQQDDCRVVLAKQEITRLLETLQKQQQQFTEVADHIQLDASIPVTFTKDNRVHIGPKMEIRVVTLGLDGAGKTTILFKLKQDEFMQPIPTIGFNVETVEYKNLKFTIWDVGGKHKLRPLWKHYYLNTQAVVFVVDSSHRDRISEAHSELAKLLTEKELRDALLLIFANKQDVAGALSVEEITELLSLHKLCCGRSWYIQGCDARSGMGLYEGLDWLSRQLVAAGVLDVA
B6: Keratin, type II cytoskeletal 6A (Homo sapiens), P02538 (parent)
chain: MASTSTTIRSHSSSRRGFSANSARLPGVSRSGFSSVSVSRSRGSGGLGGACGGAGFGSRSLYGLGGSKRISIGGGSCAISGGYGSRAGGSYGFGGAGSGFGFGGGAGIGFGLGGGAGLAGGFGGPGFPVCPPGGIQEVTVNQSLLTPLNLQIDPTIQRVRAEEREQIKTLNNKFASFIDKVRFLEQQNKVLETKWTLLQEQGTKTVRQNLEPLFEQYINNLRRQLDSIVGERGRLDSELRGMQDLVEDFKNKYEDEINKRTAAENEFVTLKKDVDAAYMNKVELQAKADTLTDEINFLRALYDAELSQMQTHISDTSVVLSMDNNRNLDLDSIIAEVKAQYEEIAQRSRAEAESWYQTKYEELQVTAGRHGDDLRNTKQEIAEINRMIQRLRSEIDHVKKQCANLQAAIADAEQRGEMALKDAKNKLEGLEDALQKAKQDLARLLKEYQELMNVKLALDVEIATYRKLLEGEECRLNGEGVGQVNISVVQSTVSSGYGGASGVGSGLGLGGGSSYSYGSGLGVGGGFSSSSGRAIGGGLSSVGGGSSTIKYTTTSSSSRKSYKH
partner: B5 partner
B7: Mothers against decapentaplegic homolog 3 (Homo sapiens), P84022 (parent)
chain: MSSILPFTPPIVKRLLGWKKGEQNGQEEKWCEKAVKSLVKKLKKTGQLDELEKAITTQNVNTKCITIPRSLDGRLQVSHRKGLPHVIYCRLWRWPDLHSHHELRAMELCEFAFNMKKDEVCVNPYHYQRVETPVLPPVLVPRHTEIPAEFPPLDDYSHSIPENTNFPAGIEPQSNIPETPPPGYLSEDGETSDHQMNHSMDAGSPNLSPNPMSPAHNNLDLQPVTYCEPAFWCSISYYELNQRVGETFHASQPSMTVDGFTDPSNSERFCLGLLSNVNRNAAVELTRRHIGRGVRLYYIGGEVFAECLSDSAIFVQSPNCNQRYGWHPATVCKIPPGCNLKIFNNQEFAALLAQSVNQGFEAVYQLTRMCTIRMSFVKGWGAEYRRQTVTSTPCWIELHLNGPLQWLDKVLTQMGSPSIRCSSVS
partner: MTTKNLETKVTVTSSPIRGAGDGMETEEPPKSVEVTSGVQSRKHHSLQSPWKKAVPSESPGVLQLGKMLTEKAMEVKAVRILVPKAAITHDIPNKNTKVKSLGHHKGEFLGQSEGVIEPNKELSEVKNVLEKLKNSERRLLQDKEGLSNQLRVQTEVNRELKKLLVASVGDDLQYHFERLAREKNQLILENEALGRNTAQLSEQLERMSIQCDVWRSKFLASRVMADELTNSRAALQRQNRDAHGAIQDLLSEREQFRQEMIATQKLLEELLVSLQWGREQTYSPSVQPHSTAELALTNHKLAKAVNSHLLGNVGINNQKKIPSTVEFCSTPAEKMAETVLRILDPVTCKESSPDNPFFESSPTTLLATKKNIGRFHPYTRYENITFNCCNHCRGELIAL

Variants of: B1
Conditions: with nlk_human NLK

Row | Variant | effect of a mutation on the interaction
1 | P248L | with no effect
2 | R432C | disrupting interaction strength
3 | P451L | disrupting interaction strength

Variants of: B2
Conditions: with cep76_human CEP76, Q8TAP6

Row | Variant | effect of a mutation on the interaction
4 | V36M | disrupting interaction strength
5 | L69P | disrupting interaction strength
6 | F94S | disrupting interaction strength

Variants of: B3
Conditions: with LRRFIP2, Q9Y608-2

Row | Variant | effect of a mutation on the interaction
7 | W94R | disrupting interaction strength

Variants of: B4
Conditions: with myog_human MYOG

Row | Variant | effect of a mutation on the interaction
8 | R472I | with no effect
9 | G244D | disrupting interaction strength

Variants of: B5
Conditions: with tri23_human TRIM23, P36406

Row | Variant | effect of a mutation on the interaction
10 | W94R | disrupting interaction strength

Variants of: B6
Conditions: with tri23_human TRIM23, P36406

Row | Variant | effect of a mutation on the interaction
11 | N21S | with no effect
12 | N171K | disrupting interaction strength
13 | F174V | with no effect
14 | F249L | with no effect
15 | I462S | disrupting interaction strength
16 | A463P | disrupting interaction strength
17 | V523F | with no effect
18 | T552S | with no effect

Variants of: B7
Conditions: with go45_human BLZF1, Q9H2G9

Row | Variant | effect of a mutation on the interaction
19 | I170V | with no effect
20 | N197I | with no effect
